Residue numbers refer to the chain shown, from its start.
B1: MbtH-like protein VMbtH (other)
chain: MTNPFDNEDGTFFVLVNDEGQHSLWPTFAEVPAGWTRVHGEATRQECLAYVEENWTDLRPKSLIQALGA
notes: Expressed from pACYCtac-VMbtH in E. coli without a His-tag
B2: MbtH-like protein Tcp13 (other)
chain: MTNPFDNEDGSFLVLVNGEGQHSLWPAFAEVPDGWTGVHGPASRQDCLGYVEQNWTDLRPKSLISQISD
notes: Expressed from pACYCtac-Tcp13 in E. coli without a His-tag
B3: MbtH-like protein Tcp17 (other)
chain: B2 chain with K61R, I64V, S65E, I67A, S68D, D69A
notes: Expressed from pACYCtac-Tcp17 in E. coli without a His-tag

Assays:
[1] = target: Tcp9_M1_AT (Actinoplanes teichomyceticus); assay: cell-based or functional assay
Tcp9_M1_AT (Actinoplanes teichomyceticus), sequence (chain, as listed by the source limits assumed): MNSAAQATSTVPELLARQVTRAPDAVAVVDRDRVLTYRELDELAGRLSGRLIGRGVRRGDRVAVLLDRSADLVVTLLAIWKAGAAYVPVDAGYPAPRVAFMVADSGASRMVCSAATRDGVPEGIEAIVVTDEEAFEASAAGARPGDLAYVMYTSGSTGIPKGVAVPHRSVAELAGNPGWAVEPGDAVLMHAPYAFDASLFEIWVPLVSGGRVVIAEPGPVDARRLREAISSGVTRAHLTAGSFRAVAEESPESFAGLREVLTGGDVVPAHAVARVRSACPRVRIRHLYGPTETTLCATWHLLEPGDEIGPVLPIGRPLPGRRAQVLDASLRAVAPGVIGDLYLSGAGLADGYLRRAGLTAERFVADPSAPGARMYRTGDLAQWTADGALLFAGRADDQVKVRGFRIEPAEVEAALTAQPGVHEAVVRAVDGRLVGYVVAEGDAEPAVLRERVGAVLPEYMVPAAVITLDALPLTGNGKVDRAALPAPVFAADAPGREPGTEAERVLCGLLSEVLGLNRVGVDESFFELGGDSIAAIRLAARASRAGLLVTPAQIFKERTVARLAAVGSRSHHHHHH

[2] = target: Tcp11_M1_A (Actinoplanes teichomyceticus); assay: cell-based or functional assay
Tcp11_M1_A (Actinoplanes teichomyceticus), sequence (chain, as listed by the source): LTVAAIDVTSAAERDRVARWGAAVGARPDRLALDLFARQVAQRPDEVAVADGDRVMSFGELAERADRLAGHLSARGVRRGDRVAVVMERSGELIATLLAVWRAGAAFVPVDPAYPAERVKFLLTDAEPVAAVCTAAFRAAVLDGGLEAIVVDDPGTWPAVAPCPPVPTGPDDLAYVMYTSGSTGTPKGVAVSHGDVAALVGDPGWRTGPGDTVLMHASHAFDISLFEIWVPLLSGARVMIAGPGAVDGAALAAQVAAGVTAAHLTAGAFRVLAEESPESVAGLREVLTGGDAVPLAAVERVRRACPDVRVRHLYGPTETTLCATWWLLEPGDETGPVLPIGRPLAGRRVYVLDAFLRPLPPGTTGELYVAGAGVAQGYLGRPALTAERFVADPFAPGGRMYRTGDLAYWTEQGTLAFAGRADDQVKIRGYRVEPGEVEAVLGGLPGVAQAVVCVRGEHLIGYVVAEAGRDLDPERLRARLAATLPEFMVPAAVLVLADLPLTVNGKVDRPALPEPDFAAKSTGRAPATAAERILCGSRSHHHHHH

[3] = target: Veg8_M1_A (uncultured soil bacterium); assay: cell-based or functional assay
Veg8_M1_A (uncultured soil bacterium), sequence (chain, as listed by the source): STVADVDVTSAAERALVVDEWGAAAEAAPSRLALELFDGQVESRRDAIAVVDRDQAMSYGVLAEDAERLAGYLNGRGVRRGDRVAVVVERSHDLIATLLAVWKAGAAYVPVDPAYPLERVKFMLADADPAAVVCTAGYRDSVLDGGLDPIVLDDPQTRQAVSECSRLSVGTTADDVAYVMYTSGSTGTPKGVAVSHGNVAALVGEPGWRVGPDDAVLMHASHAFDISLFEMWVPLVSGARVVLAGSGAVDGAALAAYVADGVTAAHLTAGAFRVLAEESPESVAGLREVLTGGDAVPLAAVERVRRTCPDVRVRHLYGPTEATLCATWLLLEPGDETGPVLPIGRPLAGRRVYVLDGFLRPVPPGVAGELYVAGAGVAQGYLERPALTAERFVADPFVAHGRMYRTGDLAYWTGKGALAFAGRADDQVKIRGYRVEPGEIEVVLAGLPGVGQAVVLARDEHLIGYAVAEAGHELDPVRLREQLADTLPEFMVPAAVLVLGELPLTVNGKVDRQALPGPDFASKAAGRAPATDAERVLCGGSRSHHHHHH

[4] = target: ComB_M1_A (Streptomyces lavendulae); assay: His-tag (TALON) co-purification after co-expression in E. coli, SDS-PAGE
[5] = target: Veg8_M1_ATE (uncultured soil bacterium); assay: as above

| Binder | Formed PPi (PPi release assay), D-HPG 0.1 mM [1] | Formed PPi (PPi release assay), D-HPG 1 mM [1] | Formed PPi (PPi release assay), D-PG 1 mM [1] | Formed PPi (PPi release assay), L-HPG 0.1 mM [1] | Formed PPi (PPi release assay), L-HPG 1 mM [1] | Formed PPi (PPi release assay), L-PG 1 mM [1] | Formed PPi (PPi release assay), D-HPG 0.1 mM [2] | Formed PPi (PPi release assay), D-HPG 1 mM [2] | Formed PPi (PPi release assay), D-PG 1 mM [2] | Formed PPi (PPi release assay), L-HPG 0.1 mM [2] | Formed PPi (PPi release assay), L-HPG 1 mM [2] | Formed PPi (PPi release assay), L-PG 1 mM [2] | Formed PPi (PPi release assay), D-HPG 0.1 mM [3] | Formed PPi (PPi release assay), D-HPG 1 mM [3] | Formed PPi (PPi release assay), D-PG 1 mM [3] | Formed PPi (PPi release assay), L-HPG 0.1 mM [3] | Formed PPi (PPi release assay), L-HPG 1 mM [3] | Formed PPi (PPi release assay), L-PG 1 mM [3] | binding result [4] | binding result [5] |
| --- | --- | --- | --- | --- | --- | --- | --- | --- | --- | --- | --- | --- | --- | --- | --- | --- | --- | --- | --- | --- |
| B1 | 3.72 mM/min/mM enzyme | 8.44 mM/min/mM enzyme | 0.07 mM/min/mM enzyme | 1.23 mM/min/mM enzyme | 1.4 mM/min/mM enzyme | 2.32 mM/min/mM enzyme | 0 mM/min/mM enzyme | 0.86 mM/min/mM enzyme | 0 mM/min/mM enzyme | 1.38 mM/min/mM enzyme | 1.54 mM/min/mM enzyme | 0.09 mM/min/mM enzyme | 0.18 mM/min/mM enzyme | 1.39 mM/min/mM enzyme | 0.02 mM/min/mM enzyme | 0.61 mM/min/mM enzyme | 0.61 mM/min/mM enzyme | 0.2 mM/min/mM enzyme | binds | binds |
| B2 | 2.07 mM/min/mM enzyme | 5.28 mM/min/mM enzyme | 0.05 mM/min/mM enzyme | 1.18 mM/min/mM enzyme | 1.16 mM/min/mM enzyme | 1.32 mM/min/mM enzyme | 0.08 mM/min/mM enzyme | 0.66 mM/min/mM enzyme | 0 mM/min/mM enzyme | 0.8 mM/min/mM enzyme | 1.03 mM/min/mM enzyme | 0.17 mM/min/mM enzyme | 0.14 mM/min/mM enzyme | 0.92 mM/min/mM enzyme | 0.01 mM/min/mM enzyme | 0.56 mM/min/mM enzyme | 0.59 mM/min/mM enzyme | 0.17 mM/min/mM enzyme | binds | binds |
| B3 | 1.71 mM/min/mM enzyme | 4.63 mM/min/mM enzyme | 0.05 mM/min/mM enzyme | 1.2 mM/min/mM enzyme | 1.34 mM/min/mM enzyme | 1.44 mM/min/mM enzyme | 0.11 mM/min/mM enzyme | 0.63 mM/min/mM enzyme | 0.04 mM/min/mM enzyme | 0.95 mM/min/mM enzyme | 1.04 mM/min/mM enzyme | 0.23 mM/min/mM enzyme | 0.17 mM/min/mM enzyme | 1.03 mM/min/mM enzyme | 0.02 mM/min/mM enzyme | 0.7 mM/min/mM enzyme | 0.64 mM/min/mM enzyme | 0.14 mM/min/mM enzyme | binds | binds |
